Measurements published in publication PMC5435084 (Molecular Biology and Evolution, 2017).
Read-outs that look alike come from different tables or passages of the source.

B1: SRGAP2A F-BARx-RhoGAP-SH3 (residues 1-799) (domain or fragment)
chain: not shown
B2: SRGAP2C F-BAR portion (F-BARC, SRGAP2C residues 1-355) (domain or fragment, human, UniProt P0DJJ0 1-355, looked up)
chain: MTSPAKFKKDKEIIAEYDTQVKEIRAQLTEQMKCLDQQCELRVQLLQDLQDFFRKKAEIEMDYSRNLEKLAEHFLAKTRSTKDQQFKKDQNVLSPVNCWNLLLNQVKWESRDHTTLSDIYLNNIIPRFVQVSEDSGRLFKKSKEVGQQLQDDLMKVLNELYSVMKTYHMYNADSISAQSKLKEAEKQEEKQIGKSVKQEDRQTPCSPDSTANVRIEEKHVRRSSVKKIEKMKEKHQAKYTENKLKAIKAQNEYLLALEATNASVFKYYIHDLSDLIDQCCDLGYHASLNRALRTFLSAELNLEQSKHEGLDAIENAVENLDATSDKQRLMEMYNNVFCPPMKFEFQPHMGDMASQ
B3: SRGAP2A F-BAR domain (F-BARA, residues 1-355) (domain or fragment, human, UniProt O75044 1-355, looked up)
chain: MTSPAKFKKDKEIIAEYDTQVKEIRAQLTEQMKCLDQQCELRVQLLQDLQDFFRKKAEIEMDYSRNLEKLAERFLAKTRSTKDQQFKKDQNVLSPVNCWNLLLNQVKRESRDHTTLSDIYLNNIIPRFVQVSEDSGRLFKKSKEVGQQLQDDLMKVLNELYSVMKTYHMYNADSISAQSKLKEAEKQEEKQIGKSVKQEDRQTPRSPDSTANVRIEEKHVRRSSVKKIEKMKEKRQAKYTENKLKAIKARNEYLLALEATNASVFKYYIHDLSDLIDQCCDLGYHASLNRALRTFLSAELNLEQSKHEGLDAIENAVENLDATSDKQRLMEMYNNVFCPPMKFEFQPHMGDMASQ
modifications: fluorescently labeled (in the MST only)
B4: SRGAP2A F-BARx (extended F-BAR, residues 1-484) (domain or fragment, human, UniProt O75044 1-484, looked up)
chain: MTSPAKFKKDKEIIAEYDTQVKEIRAQLTEQMKCLDQQCELRVQLLQDLQDFFRKKAEIEMDYSRNLEKLAERFLAKTRSTKDQQFKKDQNVLSPVNCWNLLLNQVKRESRDHTTLSDIYLNNIIPRFVQVSEDSGRLFKKSKEVGQQLQDDLMKVLNELYSVMKTYHMYNADSISAQSKLKEAEKQEEKQIGKSVKQEDRQTPRSPDSTANVRIEEKHVRRSSVKKIEKMKEKRQAKYTENKLKAIKARNEYLLALEATNASVFKYYIHDLSDLIDQCCDLGYHASLNRALRTFLSAELNLEQSKHEGLDAIENAVENLDATSDKQRLMEMYNNVFCPPMKFEFQPHMGDMASQLCAQQPVQSELVQRCQQLQSRLSTLKIENEEVKKTMEATLQTIQDIVTVEDFDVSDCFQYSNSMESVKSTVSETFMSKPSIAKRRANQQETEQFYFTKMKEYLEGRNLITKLQAKHDLLQKTLGESQRT
modifications: fluorescently labeled (in the MST only)

Columns and labels:
[1] = biological target: the molecule itself; test: SEC
[2] = biological target: the molecule itself; test: SEC; remark: listed apart in the source
[3] = biological target: B1; test: SEC-MALS
[4] = biological target: SRGAP2A RhoGAP-SH3 domains (isolated) (human, UniProt O75044 485-1071); test: MST

| Binder | stoichiometry N [1] | stoichiometry N [2] | binding result [3] | Kd [4] [µM] |
| --- | --- | --- | --- | --- |
| B1 | 2 |  |  |  |
| B2 |  | 2 | binds |  |
| B3 |  | 2 |  | 3 |
| B4 |  |  |  | 3.5 |
